Results as given in PMC5830921, “A single N‐terminal phosphomimic disrupts TDP‐43 polymerization, phase separation, and RNA splicing” (The EMBO Journal, 2018).

B1: TDP-43 N-terminal domain (NTD), wild-type, residues 1-80 (domain or fragment)
chain: GHMMSEYIRVTEDENDEPIEIPSEDDGTVLLSTVTAQFPGACGLRYRNPVSQCMRGVRLVEGILHAPDAGWGNLVYVVNYPKD
notes: three additional N-terminal residues left by the cloning strategy and TEV cleavage; TDP-43 N-terminal domain, residues 1-80 (codon of N81 changed to a stop codon); 15N-labelled or natural abundance, depending on the NMR experiment; also called TDP-43 NTD; NTD WT; source: E. coli BL21 Star DE3, purified (Histrap, TEV cleavage, SEC); not shown: Thioredoxin, N-terminal, cleaved; His6, N-terminal, …

Assays:
[1] = target: the molecule itself; test: cross-linking; amine cross-linker BS3, 20 mM HEPES pH 7.5, 150 mM NaCl, 1 mM DTT, room temperature 30 min, SDS-PAGE; samples of 10-200 μM
[2] = target: the molecule itself; test: AUC; sedimentation equilibrium, 28.28-89.23 μM, 150 mM NaCl, 20°C, 12,000, 25,000 and 43,000 rpm; isodesmic model, single KD for each association step
[3] = target: the molecule itself; test: CG-MALS; composition gradient multi-angle light scattering, 20 mM HEPES pH 6.8, 150 mM NaCl, 1 mM DTT; isodesmic self-association model, each addition of a monomer
[4] = target: TDP-43 NTD S48E, residues 1-80 (UniProt Q13148); test: as above
[5] = target: B1; test: NMR titration; 1H-15N HSQC chemical shift deviations of 10 μM 15N-labelled protein with 90 μM natural abundance partner, against 10 μM alone; conditions: both partners purified

Binder	stoichiometry N [1]	Kd [2] [µM]	Kd [3] [µM]	Kd [4] [µM]	binding result [5]
B1	≤ 7	~40	95		
TDP-43 NTD S48E, residues 1-80 (domain or fragment, three additional N-terminal residues left by the cloning strategy and TEV cleavage; TDP-43 N-terminal domain, residues 1-80, phosphomimetic S48E; 15N-, 13C/15N-labelled or natural abundance, depending on the NMR experiment; also called S48E TDP-43 NTD; S48E 1-80 NTD; source: E. coli BL21 Star DE3, purified (Histrap, TEV cleavage, SEC); not shown: Thioredoxin, N-terminal, cleaved; His6, …) GHMMSEYIRVTEDENDEPIEIPSEDDGTVLLSTVTAQFPGACGLRYRNPVEQCMRGVRLVEGILHAPDAGWGNLVYVVNYPKD				2000	binds
